B1: 4 (protein, listed as Lactobacillus buchneri)
chain: MAKVITLEEHFSSQKLGQKMAEVLPKRPIGNVSPKMQDYMQRSLPPEAELEDVTGSRIQWMDQHQISMQILSYGNQNPQNSDPKFAVELTKLANDELAKAVAKAPDRFRAFASLPVSHPTDAAAELKRGVEELGFKGAMLVRPTSQAHPFFDDPFYLPIFEAAANLNVPVYLHPSFPDSQIIDYYYSNGPWDDKVSGILGTAGYGWHTDVGIQTVRLLLSGVFEKYPNLKLISGHWGEFASFALERMDQVMYPETNLSEPISKIYRDHVYVTPSGILTEPQLKFVKDEVGIEHLLYSIDYPYIKPENSGSFIESSPLTDEEKELFAHGNAEKLLQL
B2: 87 (protein, listed as Novosphingobium sp.)
chain: MASDIATAADLQTGGRQGYLRIATEEAFATRDQIDVYLRMVRDGTADRGMTSLWGFYAQSPSARATQIIERLLDLGEQRLADMDAAGIDKAVLALTSPGVQPLLDMEEARRIAGNANDRLAERCAAHPDRFIGMTAVAPQDPQWSAREILRGATQLGFKGVQINSHTQGRYLDEPFFDPIFRALGDVGQPLYIHPGTPPDSMIGPLLDAGLDGAIYGFGVETGMHLLRLITAGIFDRYPDLQIMVGHMGEALPYWLYRLDYMHQAGIRSQRYERMRPLKRTIAGYFRSNVLVTCSGMAWEPAIQFARQVMGEDRVMYAMDYPYQYEADEVRALDVMDLSPESKRKFFQTNAERWFDL
B3: 108 (protein, listed as Staphylococcus aureus)
chain: MAKSITFEEHYVIEDIQKETMNAISADPKGVPMKVMLEGLEKKTGFTNADELSHHDERIQFMNNQDVQIQVLSYGNGSPSNLVGQKAIELCQKANDQLANYIAQYPNRFVGFATLPINEPEAAAREFERCINDLGFKGALIMGRAQDGFLDQDKYDIIFKTAENLDVPIYLHPAPVNSDIYQSYYKGNYPEVTAATFACFGYGWHIDVGIHAIHLVLSGIFDRYPKLNMIIGHWGEFIPFFLERMDEALFAEHLNHSVSYYFKNSFYITPSGMLTKPQFDLVKKEVGIDRILYAADYPYIEPEKLGVFLDELGLTDEEKEKISYTNGAKLLGLSSNN
B4: 92 (protein, listed as Chitinophaga pinensis)
chain: MARIVTLEEHVSFPEMTALLPEEILKNRKQSGAALQMQEKLADITGERLTSMKAAGISMQVLSVENTDVYLLPDSLAPAFAAKYNDLLADKISSHSDAFAAFAMLPMTVPEAAADELERAVKTHGFCGAMIKGLINGVFLDAPKFAPVFACAEKLGVPLYIHPGIPPKEVIDAYYSNVGDTKGPNEAIACYGWGWHSETAIHILRLLAAGIFDKYPQLNIIIGHMGEMLPMMWERSNRVFQPGNNGKNQRTLIETFRKQLYITTSGIFTQPPLQIAIDTIGIDNILFSIDYPFSSNQMGIDFLTKAALPAEQLAKMAHGNADRILKF
B5: 55 (protein, listed as Serratia sp.)
chain: MAKIICLEEHTLDKALVMASMPAALEQAPFLSDWGKTVTDGNLPDRSRPQIEKNDLINIKGADIGRGRLDDMDVAGITMQVLSVGGFPHLISAAEGVDLNRAANDRLADAVNAHPDRFAAFATLPWAQPDSAEKELERAVKELGFKGALLNGRPSTHFLDHPDYDGLLARFNALGVPLYLHPGLPVRSVQQAYYGGFSDEVTARLSMFGWGWHHEAGIHLLRLILSGAFDKYPNLQVISGHWGEMLPFWLQRLDDSLPQAATGLRRTIAQTFKEQVYVTPSGMLTLPHFQFIYALLGAERIIFSVDYPYQTLDGVKAFIQSLPVPEEAKEAIAFRNAERLLGLTS
B6: 89 (protein, listed as Erwinia billingiae)
chain: MATNRRDFLKNATAVMAGSTVFAGSSHFASAAAVEPAAVQPPRRIIALEEHFMLPEFVGYLHETQQNLRNGLVDKVVTPLSDFGKGRLEIMDKNGVDFAVLSLSGPGVQAEPDRVKAVRLARYANDKLATEMQKNPRRYGGFAHLAMQDPLAAANELERCVKQLHMQGGMINGETDGLYLDDRRYDVFWERVEALNVPIYIHPGNPPDYPHMFAGHPEMWGPVWSWAVETCSHALRLIFSGTFDRYPGARVILGHMGETLPIQLWRLDSRYQIANQTFAIKHPPSWYAKKNITITTSGVCNDAALRCALDSMGSENVMFSIDYPFESTEIAVNWLKTANITEQERNAVAWGNATSILRLGA
B7: 58 (protein)
chain: MARVIALEEHYATTEFLRGPGTWLASRPGIVEPAGDLGDGRIAAMDQAGVDLAVLSLAAPGVEQLDPDDAVRLARDCNDQLAAAVRRYPDRLAGFATVPTSAPDRAADELERAVRGLGFPGAVINGHSRGRYLDDPFFEPVLARAAELQAPIYLHPTIPPAGVIESSYAGFAEPVTFALATVGWGWHINTATHALRMILGGVFDRHPSLQMIIGHMGEATSFMLPRFDATLKPELTGLNHPVSSYLRENFHYTFANFNDHATYANLVAQVGIERVAFSADYPFGSMVDARAFLDGLPLSDDERAAISHRNAEKLLGL
modifications: Mycobacterium colombiense
B8: 56 (protein)
chain: MAKIICLEEHYLDSELGRACMPVALEQAPFLGDWGKTVADGHNPDRSRPQIEKNALINAKGADLGSRRLRDMDEAGITLQILSVGGFPQLAPEDEAVTLNTAANDRLAEAVRNHPDRFAAFATLPWAQPKDAENELVRAVEKLGFKGALLNGRPSSCFLDHPDYDSLLSRFNKLNVPLYLHPGLPLKSVQQAYFTGFSAEVNARLSMFGWGWHHEAGIHLLRLMLSGAFDKYPNMQVISGHWGEMLPFWLQRLDDSLPLAATGLSRTLTRTFQEHVYVTPSGMLTLPHFKFIYELMGAERILFSVDYPYQTLDGVKTFIDSLPVNKAEKEAIAFRNAERLLGITA
modifications: Enterobacter aerogenes
B9: 88 (protein, listed as Starkeya novella)
chain: MARKIALEEHFTTPELAGKYVARPTQSDALFADIERRLADFDELRLEMMDRAEIDLMVLSVTTPGVQGVRDTGEAIRLARGANDFLAREVQKRPSRYAGFAHLAMQDAEAAATELERAVRELGFRGALINGQTNGHYLDEDQYAPFWERVQELDVPVYLHPGNMADSPAMFAHRPELGGPIWAWTAETAAHALRLVFGGTFTRFPGAKVILGHMGETLPFLLWRLDSRREFDLGEKLAPDALPSAIIKRNIAVTTSGVCDPAPLVAALQALSDDNVMFSVDYPYEDPQLASKFIETAPIGEETRAKVCHGNAERLLGL
B10: 81 (protein, listed as Verticillium dahliae)
chain: MAASTKPKVVDIHTHMYPPSYIDILTSRTAIPVVRTFPQAADPRLILLDAEQQALDAALQDPTAKPPGRPLTSHYASLDQKIHFMDTHSIDISVVSLANPWLDFIEPKEAAATARSVNDEFEAMCASQPGRLFFFAALPLTAPLPALLEAVRHVAELEHCRGVILGTSGLGSGLDDPELVPVLEAVAAAALTVFLHPHYGLPNDVWGPRASAEYGHVLPLALGFPMETTIAVARMYLAGVFDRVPALRMLLAHSGGTLPFLAGRIESCILHDGQLVAEGKVGAARRTIWDVLREQVYLDAVIYSEIGLKAAIAASGGADRLMFGTDHPFFPPLGTDEQAKKESRINAGGSRPMITGNAMINGHGGLCNHITQSDYQDVVL
B11: 79 (protein)
chain: MATTTTPSTLIATLESHLTPTLAFTSPTTSPTQPALHLIPPTTLTKLRNLGPGRVKDMHMLGHSRQIISHIPVAAPPQICSRFNDAIHAATMTNTAKFSVLAVLPTDGMEAAKELARCVSKYRFVGGVIGLNRGLRINGEGWEELWGLAERLRIPIMFREMWPLAFEIVDYQHHLPYSALGPILTQLHTSHTSSPLPLVRLYLSSVFDHYPSLRLVLAHPGSLPSLVPRIESLINSIPATDKPKRSFLDVWQHNIYLTTADAQDMSSLRALLEQIPVDRVLYASNYPFEERGNELMNELRESEFLTNIEWERVAWVNAETLFNLKEAGTKEARQLTTIPSSRS
modifications: Pyrenophora teres
B12: 57 (protein)
chain: MAKLICVEEHVLDPAVGAATQSLVRAEAPYLPDWGSRVLDGRHVADRSRPHVIAPSESARKALEMGEPRLADMDAASIDMQVLSYGGFPQLLPAAQAIDLNRAANDKLALAAQAHPARFAGFATLPWQAPEAAARELERAVKQLGLKGALINGRPGDTFLDDARYAPILAAFDELKVPLYVHPGLPLPAVQAPYYGGFERELSARLAMFAWGWHNEAGIQVVRMLLAGVFDRHPRLQLISGHWGEMVPFFLQRLEDSIPQEASGLQRPIVQTYREHVYISPSGMFTLPHFQFIHALMGAQRILYSIDYPYQSLDGARAFIERLPISDTDKALIAHRNAERLLHL
modifications: Collimonas fungivorans

Experiment: 14C assay with IPTG-induced recombinant E. coli cells: 14CO2 captured from [14C]-carboxyl-labeled dicamba
Details: among the 108 sequences tested, recombinant E. coli cells

Molecule	decarboxylation activity of dicamba
B1	showed decarboxylation activity of dicamba
B2	showed decarboxylation activity of dicamba
B3	showed decarboxylation activity of dicamba
B4	showed decarboxylation activity of dicamba
B5	showed decarboxylation activity of dicamba
B6	showed decarboxylation activity of dicamba
B7	showed decarboxylation activity of dicamba
B8	showed decarboxylation activity of dicamba
B9	showed decarboxylation activity of dicamba
B10	showed decarboxylation activity of dicamba
B11	showed decarboxylation activity of dicamba
B12	showed decarboxylation activity of dicamba

Same assay, conditions: dicamba decarboxylation activity of the protein of the given SEQ ID NO; High / Low / No

Molecule	Enzymatic Detection level
B1	High
B2	High
B3	High
B4	High
B5	High
B6	High
B7	High
B8	High
B9	High
B10	High
B11	High
B12	High

Same assay, conditions: induced recombinant E. coli cells, [14C]-carboxyl-labeled dicamba, 14CO2 capture

Molecule	Dicamba Decarboxylase Activity
B1	High
B2	High
B3	High
B4	Yes
B5	High
B6	High
B7	High
B8	High
B9	High
B10	High
B11	High
B12	High

Experiment: Saturation mutagenesis of SEQ ID NO:109: dicamba decarboxylation activity of point mutants (carbon dioxide released)
Details: decarboxylation activity (carbon dioxide released) of point mutant compared with unmutated backbone protein; backbone SEQ ID NO: 109

Molecule	Fold Activity
B1	1
B2	1.4
B3	1.6
B4	1.7
B5	1.5
B6	3.1
B7	1.5
B8	1.3
B9	1.3
B10	1.2
B11	0.9
B12	2
